Data taken from patent US20250122301A1 (IBIO, published 2025).

T1: full-length CD25 (human CD25, recombinant protein used on biosensors) (human, UniProt P01589 22-213, limits assumed)
T1 construct: Printed only as Human CD25 / full-length CD25; also called CD25 antigen; alpha chain of the IL-2 receptor
T1 sequence (looked up): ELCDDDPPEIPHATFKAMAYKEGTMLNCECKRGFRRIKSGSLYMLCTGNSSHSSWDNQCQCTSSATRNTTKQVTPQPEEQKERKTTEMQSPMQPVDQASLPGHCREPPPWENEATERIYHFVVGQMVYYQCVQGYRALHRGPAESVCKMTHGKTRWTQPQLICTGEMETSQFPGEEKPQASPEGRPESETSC

T2: CD25 on CD25+ cells (SUDHL-1, HEK IL-2 reporter cells, primary human regulatory T cells) (human, UniProt P01589 22-272)
T2 sequence (looked up): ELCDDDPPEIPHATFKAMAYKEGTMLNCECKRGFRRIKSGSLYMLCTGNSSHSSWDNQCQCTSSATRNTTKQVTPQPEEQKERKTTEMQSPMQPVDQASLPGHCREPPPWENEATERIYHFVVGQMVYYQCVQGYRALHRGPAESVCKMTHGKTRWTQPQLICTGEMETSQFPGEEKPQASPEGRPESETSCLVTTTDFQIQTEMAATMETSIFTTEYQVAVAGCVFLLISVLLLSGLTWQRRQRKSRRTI


What was measured:
[1] = biological target: T1, full-length CD25 (human CD25, …); assay: Octet BLI, human CD25 on AR2G tip, Fab, pH 6.5
Description: For Octet Koff rate screening in raw supernatants, 50 ul of lysate was used in 384-well Pall ForteBio Octet plates. […] Briefly, Human CD25 was coupled to AR2G tips (1 ug/ml). For data collection, baseline was assessed in PBST 1% BSA buffer at pH 6.5 for 60 seconds. Tips were then moved to 50 ul lysate pH6.5 adjusted and association measured for 300 seconds. Finally, tips were moved to PBST 1% BSA buffer at pH 6.5. Tips were then regenerated with 200 mM Tris-Glycine, pH 2.5 and neutralization with PBST, 1% BSA, pH 6.5. For data analysis, Double referencing was performed on Octet HT 11.0 software (no CD25 on tip as well as blank reference well), for reference subtraction.

[2] = biological target: T1, full-length CD25 (human CD25, …); assay: Octet BLI, human CD25 on AR2G tip, Fab, pH 7.4
[3] = biological target: T2, CD25 on CD25+ cells (SUDHL-1, HEK IL-2 …); assay: cell-based or functional assay

Binder	koff [1]	koff [2]	pSTAT5 IC50 (1 ug/mL) [ng/ml] [3]	pSTAT5 IC50 (2 ug/mL) [ng/ml] [3]	pSTAT5 IC50 (5 ug/mL) [ng/ml] [3]
D5 Fab (Fab, V domains shown, Fab from mouse immune phage library, expressed in E. coli; also called Fab clone D5) VH: HVQLQQSGAELVRPGTSVKISCKASGYTFTNYWLGWVKQRPGHGLEWIGDIYPGGGYTNYNEKFKGKATLTADTSSSTAYMQLSSLTSEDSAVYFCARVTPASWGQGTSLTVSS VL: DIVMTQSQKFMSTSVGDRVSVTCKASQNVGTNVAWYQQKPGQSPKALIYSASYRYSGVPDRFTGSGSGTDFTLTISNVQSEDLAEYFCQQYNSYPYTFGGGTKLEMK	0.00412 s⁻¹	0.00345 s⁻¹	0.303 ng/ml	0.488 ng/ml	1.65 ng/ml
D17 Fab (Fab, V domains shown, Fab; also called Fab clone D17) VH: QIQLQQSGAELVRPGTSVKISCKASGYTFTNYWLGWVKQRPGHGLEWIGDIYPGGGYTNYNEKFKGKATLTADTSSSTAYMQLSSLTSEDSAVYFCARVTPASWGQGTTLTVSA VL: DILLTQSQKFMSTSVGDRVSVTCKASQNVGTNVAWYQQKPGQSPKALIYSASYRYSGVPDRFTGSGSGTDFTLTISNVQSEDLAEYFCQQYNSYPLTFGGGTKLEIK	0.00536 s⁻¹	0.00337 s⁻¹	0.251 ng/ml	0.217 ng/ml	0.283 ng/ml
D16 Fab (Fab, V domains shown, Fab; also called Fab clone D16) VH: QVQMQQSGAELVRPGTSVKISCKASGYTFTNYWLGWVKQRPGHGLEWIGDIYPGGGYTNYNEKFKGKATLTADTSSSTAYMQLSSLTSEDSAVYFCARVTPASWGQGTTLTVSS VL: DIQMTQSQKFMSTSVGDRVSVTCKASQNVGTNVAWYQQKPGQSPKALIYSASYRYSGVPDRFTGSGSGTDFTLTISNVQSEDLAEYFCQQYNSYPWTFGGGTKLEIK	0.00591 s⁻¹	0.004 s⁻¹	0.43 ng/ml	4.77 ng/ml	40.3 ng/ml
D36 Fab (Fab, V domains shown, Fab; also called Fab clone D36) VH: QVQLQQPGAELVRPGVSLKISCKGSGYTFTDYAMHWVRQSHAKSLEWIGVISTYSGDALYNQKFKGKATMTVDKSSSTAYLELARLTSEDSAIYYCARGVTFDYWGQGTTLTVSS VL: DVVMTQSPASLSASVGETVTITCRASENSYSYLEWYQQKQGKSPQLLVYNAKTLAEGVPSRFSGSGSGTQFSLKINSLQPEDFGTYYCQHHYGTPYTFGGGTKLEMK	0.00172 s⁻¹	0.000898 s⁻¹	2.23 ng/ml	3.45 ng/ml	0.378 ng/ml
D11 Fab (Fab, V domains shown, Fab; also called Fab clone D11) VH: QIQLQQPGAELVRPGVSLKISCKGSGYTFTDYAMHWVRQSHAKSLEWIGVISTYSGDAIYNQKFKGKATMTVDKSSSTAYLELARLTSDDSAIYYCARGVTFDYWGQGTTVTVSS VL: DIQMTQTTSSLSASLGDRVTITCRASQDISNYLEWYQQKQGKSPQLLVYNAKTLAEGVPSRFSGSGSGTQFSLKINSLQPEDFGSYYCQHHYDTPYTFGGGTKLEIK	0.00522 s⁻¹	0.00452 s⁻¹	0.414 ng/ml	0.303 ng/ml	0.509 ng/ml
